Laboratory results published in paper PMC4226571, “The E6AP Binding Pocket of the HPV16 E6 Oncoprotein Provides a Docking Site for a Small Inhibitory Peptide Unrelated to E6AP, Indicating Druggability of E6” (PLoS ONE, 2014).

What was measured:
[1] = target: pep11** fused to the GAL4 DNA binding domain; experiment: mammalian two-hybrid; conditions: HeLa cells; read off a plot
[2] = target: E6APpep fused to the GAL4 DNA binding domain; experiment: mammalian two-hybrid; conditions: HeLa cells; read off a plot
[3] = target: pep11** fused to the GAL4 DNA binding domain; experiment: mammalian two-hybrid; conditions: HeLa cells; read off a plot; remark: listed apart in the source
[4] = target: E6APpep fused to the GAL4 DNA binding domain; experiment: mammalian two-hybrid; conditions: HeLa cells; read off a plot; remark: listed apart in the source
[5] = target: T1, E6APpep fused to the GAL4 DNA binding domain (human); experiment: two-hybrid; mammalian two-hybrid (CheckMate) in HeLa cells; peptides fused to GAL4-BD (pBIND), E6 proteins fused to VP16-AD (pACT); luciferase reporter pG5luc, normalized for pCMV-Gal; conditions: partners not purified
T1 construct: The functional row used hrGFP-E6APpep; also called E6APpep-GAL4-BD
T1 chain: IPESSELTLQELLGEERR

[6] = target: T2, pep11** fused to the GAL4 DNA binding domain; experiment: two-hybrid; conditions: partners not purified
T2 construct: also called pep11**-GAL4-BD
T2 chain: KEKEEYNSNCSCIACIGLI

[7] = target: T3, wildtype HPV16 E6 fused to the VP16 transcriptional activation domain, P03126; experiment: mammalian two-hybrid; conditions: chain shown with the change; HeLa cells; parent: est. 19; read off a plot
T3 chain: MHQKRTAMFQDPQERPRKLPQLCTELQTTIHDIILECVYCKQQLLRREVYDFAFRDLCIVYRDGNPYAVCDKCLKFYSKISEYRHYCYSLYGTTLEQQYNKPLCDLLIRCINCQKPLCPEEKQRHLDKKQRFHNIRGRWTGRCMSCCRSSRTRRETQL

wildtype HPV16 E6 fused to the VP16 transcriptional activation domain (from UniProt P03126) R55A
percent of parent [1]: 130% | percent of parent [2]: 64% | percent of parent [3]: 130% | percent of parent [4]: 64%

wildtype HPV16 E6 fused to the VP16 transcriptional activation domain (from UniProt P03126) Q35A
percent of parent [3]: 100% | percent of parent [4]: 110%

wildtype HPV16 E6 fused to the VP16 transcriptional activation domain (from UniProt P03126) K108A
percent of parent [3]: 140% | percent of parent [4]: 93%

wildtype HPV16 E6 fused to the VP16 transcriptional activation domain (from UniProt P03126) Y70A
percent of parent [1]: 57% | percent of parent [2]: 99% | percent of parent [3]: 57% | percent of parent [4]: 99%

wildtype HPV16 E6 fused to the VP16 transcriptional activation domain (from UniProt P03126) D64H
percent of parent [3]: 57% | percent of parent [4]: 64%

wildtype HPV16 E6 fused to the VP16 transcriptional activation domain (from UniProt P03126) D64A
percent of parent [3]: 60% | percent of parent [4]: 64%

wildtype HPV16 E6 fused to the VP16 transcriptional activation domain (from UniProt P03126) H24Q
percent of parent [3]: 74% | percent of parent [4]: 87%

wildtype HPV16 E6 fused to the VP16 transcriptional activation domain (from UniProt P03126) K122A
percent of parent [3]: 170% | percent of parent [4]: 110%

wildtype HPV16 E6 fused to the VP16 transcriptional activation domain (from UniProt P03126) S74R
percent of parent [3]: 64% | percent of parent [4]: 70%

wildtype HPV16 E6 fused to the VP16 transcriptional activation domain (from UniProt P03126) N105A
percent of parent [3]: 110% | percent of parent [4]: 80%

wildtype HPV16 E6 fused to the VP16 transcriptional activation domain (from UniProt P03126) R129E
percent of parent [3]: 120% | percent of parent [4]: 110%

wildtype HPV16 E6 fused to the VP16 transcriptional activation domain (from UniProt P03126) C140E
percent of parent [3]: 150% | percent of parent [4]: 140%

wildtype HPV16 E6 fused to the VP16 transcriptional activation domain (from UniProt P03126) L50E
percent of parent [3]: 5% | percent of parent [4]: 42%

wildtype HPV16 E6 fused to the VP16 transcriptional activation domain (from UniProt P03126) R39A
percent of parent [3]: 89% | percent of parent [4]: 78%

wildtype HPV16 E6 fused to the VP16 transcriptional activation domain (from UniProt P03126) I23Q
percent of parent [3]: 70% | percent of parent [4]: 66%

wildtype HPV16 E6 fused to the VP16 transcriptional activation domain (from UniProt P03126) K121A
percent of parent [3]: 170% | percent of parent [4]: 120%

wildtype HPV16 E6 fused to the VP16 transcriptional activation domain (from UniProt P03126) D120A
percent of parent [3]: 100% | percent of parent [4]: 120%

wildtype HPV16 E6 fused to the VP16 transcriptional activation domain (from UniProt P03126) Y32A
percent of parent [3]: 7% | percent of parent [4]: 53%

wildtype HPV16 E6 fused to the VP16 transcriptional activation domain (from UniProt P03126) Q35R
percent of parent [3]: 100% | percent of parent [4]: 120%

wildtype HPV16 E6 fused to the VP16 transcriptional activation domain (from UniProt P03126) L119E
percent of parent [3]: 100% | percent of parent [4]: 88%

wildtype HPV16 E6 fused to the VP16 transcriptional activation domain (from UniProt P03126) K34E
percent of parent [3]: 120% | percent of parent [4]: 74%

wildtype HPV16 E6 fused to the VP16 transcriptional activation domain (from UniProt P03126) D120K
percent of parent [3]: 91% | percent of parent [4]: 100%

wildtype HPV16 E6 fused to the VP16 transcriptional activation domain (from UniProt P03126) H24R
percent of parent [3]: 57% | percent of parent [4]: 79%

wildtype HPV16 E6 fused to the VP16 transcriptional activation domain (from UniProt P03126) R40A
percent of parent [3]: 120% | percent of parent [4]: 110%

wildtype HPV16 E6 fused to the VP16 transcriptional activation domain (from UniProt P03126) R102E
percent of parent [3]: 10% | percent of parent [4]: 43%

wildtype HPV16 E6 fused to the VP16 transcriptional activation domain (from UniProt P03126) C51F
percent of parent [3]: 110% | percent of parent [4]: 110%

wildtype HPV16 E6 fused to the VP16 transcriptional activation domain (from UniProt P03126) V62A
percent of parent [3]: 61% | percent of parent [4]: 63%

wildtype HPV16 E6 fused to the VP16 transcriptional activation domain (from UniProt P03126) L38E
percent of parent [3]: 140% | percent of parent [4]: 170%

wildtype HPV16 E6 fused to the VP16 transcriptional activation domain (from UniProt P03126) R129A
percent of parent [3]: 190% | percent of parent [4]: 290%

wildtype HPV16 E6 fused to the VP16 transcriptional activation domain (from UniProt P03126) L100A
percent of parent [3]: 130% | percent of parent [4]: 130%

wildtype HPV16 E6 fused to the VP16 transcriptional activation domain (from UniProt P03126) R131E
percent of parent [3]: 49% | percent of parent [4]: 41%

wildtype HPV16 E6 fused to the VP16 transcriptional activation domain (from UniProt P03126) T133A
percent of parent [3]: 130% | percent of parent [4]: 150%

wildtype HPV16 E6 fused to the VP16 transcriptional activation domain (from UniProt P03126) L67A
percent of parent [3]: 46% | percent of parent [4]: 48%

wildtype HPV16 E6 fused to the VP16 transcriptional activation domain (from UniProt P03126) R48A
percent of parent [3]: 110% | percent of parent [4]: 98%

wildtype HPV16 E6 fused to the VP16 transcriptional activation domain (from UniProt P03126) V53E
percent of parent [3]: 7% | percent of parent [4]: 45%

wildtype HPV16 E6 fused to the VP16 transcriptional activation domain (from UniProt P03126) H126A
percent of parent [3]: 110% | percent of parent [4]: 80%

wildtype HPV16 E6 fused to the VP16 transcriptional activation domain (from UniProt P03126) Q107A
percent of parent [3]: 100% | percent of parent [4]: 79%

wildtype HPV16 E6 fused to the VP16 transcriptional activation domain (from UniProt P03126) I128A
percent of parent [3]: 17% | percent of parent [4]: 52%

wildtype HPV16 E6 fused to the VP16 transcriptional activation domain (from UniProt P03126) D44R
percent of parent [3]: 45% | percent of parent [4]: 67%

wildtype HPV16 E6 fused to the VP16 transcriptional activation domain (from UniProt P03126) H126E
percent of parent [3]: 98% | percent of parent [4]: 63%

wildtype HPV16 E6 fused to the VP16 transcriptional activation domain (from UniProt P03126) I128E
percent of parent [3]: 10% | percent of parent [4]: 48%

B1: wildtype HPV16 E6 fused to the VP16 transcriptional activation domain (natural protein)
chain: MHQKRTAMFQDPQERPRKLPQLCTELQTTIHDIILECVYCKQQLLRREVYDFAFRDLCIVYRDGNPYAVCDKCLKFYSKISEYRHYCYSLYGTTLEQQYNKPLCDLLIRCINCQKPLCPEEKQRHLDKKQRFHNIRGRWTGRCMSCCRSSRTRRETQL
notes: source: HeLa, transfected (vector pACT), mammalian two-hybrid fusion
fold increase of luciferase activity over control-transfected cells [5]: ~3 fold | fold increase of luciferase activity over control-transfected cells [6]: ~19 fold

KEKEEYNSNSSSIASIGLI [pep11** fused to the GAL4 DNA binding domain pep11**m]
response [7]: 1 RLA
